# Article PMC12143597, “The low endoribonuclease activity and lack of rNMP preference of human mitochondrial topoisomerase 1 protect against ribonucleotide-dependent deletions”
# Columns and labels:
# [1] = target: T1, scTOP1 catalytically inactive variant (Saccharomyces cerevisiae) (UniProt P04786); experiment: fluorescence anisotropy; details: 20 mM Tris pH 8, 66 mM NaCl, 1 mM DTT, 2% glycerol, 0.5 nM DNA, 0-60 nM TOP1, 10 min at 37 C, errors are SEM of 3-5 experiments
# T1 sequence: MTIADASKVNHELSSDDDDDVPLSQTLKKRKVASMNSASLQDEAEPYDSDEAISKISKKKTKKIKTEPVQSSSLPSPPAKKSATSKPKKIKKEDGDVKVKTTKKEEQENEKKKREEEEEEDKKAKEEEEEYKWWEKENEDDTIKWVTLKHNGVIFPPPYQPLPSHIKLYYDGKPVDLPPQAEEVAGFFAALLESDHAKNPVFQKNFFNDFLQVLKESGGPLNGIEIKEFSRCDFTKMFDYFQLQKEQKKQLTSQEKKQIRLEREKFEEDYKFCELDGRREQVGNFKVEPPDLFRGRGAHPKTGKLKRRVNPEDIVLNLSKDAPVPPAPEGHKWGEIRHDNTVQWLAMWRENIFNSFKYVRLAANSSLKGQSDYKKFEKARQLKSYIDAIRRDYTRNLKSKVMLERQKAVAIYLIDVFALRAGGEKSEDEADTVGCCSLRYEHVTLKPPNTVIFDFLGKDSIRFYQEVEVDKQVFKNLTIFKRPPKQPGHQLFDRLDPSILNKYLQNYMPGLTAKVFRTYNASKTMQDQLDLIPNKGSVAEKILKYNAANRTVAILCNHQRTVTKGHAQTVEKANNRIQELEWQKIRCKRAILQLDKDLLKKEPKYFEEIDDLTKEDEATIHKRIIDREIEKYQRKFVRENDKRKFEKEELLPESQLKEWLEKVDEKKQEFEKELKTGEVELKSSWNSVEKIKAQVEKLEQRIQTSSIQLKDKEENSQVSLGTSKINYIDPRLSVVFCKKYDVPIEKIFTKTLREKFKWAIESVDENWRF
# [2] = target: T2, hTOP1MT catalytically inactive (Y955F) (Homo sapiens, UniProt Q969P6 =DIKLIDTVDLE+51-601, Y559F;internal_change); experiment: fluorescence anisotropy; 20 mM Tris pH 8, 66 mM NaCl, 1 mM DTT, 2% glycerol, 0.5 nM DNA, 0-60 nM TOP1, 10 min at 37 C; errors are SEM of 3-5 experiments; details: protein: recombinant; tags: GST tag removed by 3C protease; label: 5'-FAM on strand 1; blunt
# T2 sequence: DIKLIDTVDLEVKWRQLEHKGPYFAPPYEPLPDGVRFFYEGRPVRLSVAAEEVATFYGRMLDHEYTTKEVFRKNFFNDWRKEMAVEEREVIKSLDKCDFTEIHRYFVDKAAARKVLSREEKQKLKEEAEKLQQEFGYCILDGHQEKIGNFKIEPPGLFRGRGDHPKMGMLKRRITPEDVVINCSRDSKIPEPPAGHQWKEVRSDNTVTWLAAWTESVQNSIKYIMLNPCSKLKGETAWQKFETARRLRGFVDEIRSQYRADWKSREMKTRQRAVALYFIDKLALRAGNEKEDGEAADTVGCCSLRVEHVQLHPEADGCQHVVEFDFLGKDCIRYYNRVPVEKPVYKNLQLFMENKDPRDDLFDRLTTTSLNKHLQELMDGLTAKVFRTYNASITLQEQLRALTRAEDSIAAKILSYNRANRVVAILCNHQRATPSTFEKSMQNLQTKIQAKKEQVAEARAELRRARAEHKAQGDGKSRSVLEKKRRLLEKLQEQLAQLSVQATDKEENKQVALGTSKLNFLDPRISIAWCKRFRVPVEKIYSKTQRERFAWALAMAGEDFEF
# [3] = target: hTOP1 catalytically inactive variant (Homo sapiens, UniProt P11387 1-765, Y723F); experiment: as above; details: protein: recombinant; tags: N-terminal GST tag removed by 3C protease; label: 5'-FAM on strand 1; blunt
# hTOP1 catalytically inactive variant, sequence (P11387 whole entry Y723F): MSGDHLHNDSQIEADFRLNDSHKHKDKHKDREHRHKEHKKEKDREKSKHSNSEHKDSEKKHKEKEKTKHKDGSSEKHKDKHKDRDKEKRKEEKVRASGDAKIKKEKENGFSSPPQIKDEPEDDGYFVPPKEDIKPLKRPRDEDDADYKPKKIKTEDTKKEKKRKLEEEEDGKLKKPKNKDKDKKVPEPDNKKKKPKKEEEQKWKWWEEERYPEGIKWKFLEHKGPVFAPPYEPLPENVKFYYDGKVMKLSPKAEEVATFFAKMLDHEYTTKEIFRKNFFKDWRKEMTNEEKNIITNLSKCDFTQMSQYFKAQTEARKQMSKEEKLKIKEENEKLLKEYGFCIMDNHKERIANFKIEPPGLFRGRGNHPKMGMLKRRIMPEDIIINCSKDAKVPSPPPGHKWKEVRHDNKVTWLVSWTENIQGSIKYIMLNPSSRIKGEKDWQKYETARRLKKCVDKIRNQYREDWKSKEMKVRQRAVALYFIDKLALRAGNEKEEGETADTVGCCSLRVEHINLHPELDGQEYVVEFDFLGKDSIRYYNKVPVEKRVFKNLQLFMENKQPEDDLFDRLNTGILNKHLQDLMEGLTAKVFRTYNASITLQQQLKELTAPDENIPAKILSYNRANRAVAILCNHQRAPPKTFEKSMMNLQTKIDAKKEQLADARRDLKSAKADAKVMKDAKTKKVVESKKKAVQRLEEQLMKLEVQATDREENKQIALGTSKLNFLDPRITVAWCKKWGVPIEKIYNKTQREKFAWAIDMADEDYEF
Molecule,Kd [2] [nM],Kd [3] [nM],other results
AGCGTTGAAGAUATGTGGCAAAACCTTTGT / ACAAAGGTTTTGCCACATATCTTCAACGCT [Substrate B (rU at cleavage site)],–,–,"Kd ([1]; single ribonucleotide rU at position 12 of strand 1, all else DNA): 5.5 nM"
AGCGTTGAAGATATGTGGCAAAACCTTTGT (double strand) [Substrate A],–,–,Kd [1]: 4.6 nM
ACTCGTCACGAGAGAGATGCCACGGTATTTCAAA (double strand) [Substrate D (rG upstream of cleavage site)],–,–,"Kd ([1]; single ribonucleotide rG at position 16 of strand 1, all else DNA): 6 nM"
ACTCGTCACGAGAGAGATGCCACGGTATTTCAAA (double strand) [Substrate C],–,–,Kd [1]: 6.6 nM
Substrate A (dsDNA) DNA 1: AGCGTTGAAGATATGTGGCAAAACCTTTGT DNA 2: ACAAAGGTTTTGCCACATATCTTCAACGCT,8.3 ± 0.59,0.97 ± 0.06,–
"Substrate D (rG upstream of cleavage site) (dsDNA, single ribonucleotide rG at position 16 of strand 1; all else DNA) DNA 1: ACTCGTCACGAGAGAGATGCCACGGTATTTCAAA DNA 2: TTTGAAATACCGTGGCATCTCTCTCGTGACGAGT",4.6 ± 0.37,1.2 ± 0.09,–
Substrate C (dsDNA) DNA 1: ACTCGTCACGAGAGAGATGCCACGGTATTTCAAA DNA 2: TTTGAAATACCGTGGCATCTCTCTCGTGACGAGT,4.7 ± 0.83,1.8 ± 0.05,–
